Results from publication PMC9524020.

Legend:
Assay in all cases: SPR
[1] = target: FcγRIIIa-158F-Afucosylated (human) (UniProt P08637)
[2] = target: biotinylated, recombinant, human FcγRIIIa-158F from SinoBiological (human) (UniProt P08637)
[3] = target: FcγRIIIa-158V-CHO^WT (soluble FcγRIIIa, allotype 158V, from wild-type CHO) (human)
[4] = target: FcγRIIIa-158V-Hybrid (human)
[5] = target: FcγRIIIa-158V-Oligomannose (human)
[6] = target: FcγRIIIa-158F-G2FS(2-6) (human) (UniProt P08637)
[7] = target: FcγRIIIa-158V-G2FS(2-6) (human)
[8] = target: FcγRIIIa-158F-G2FS(2-3) (human) (UniProt P08637)
FcγRIIIa-158F-G2FS(2-3) (human), sequence (P08637 17-208): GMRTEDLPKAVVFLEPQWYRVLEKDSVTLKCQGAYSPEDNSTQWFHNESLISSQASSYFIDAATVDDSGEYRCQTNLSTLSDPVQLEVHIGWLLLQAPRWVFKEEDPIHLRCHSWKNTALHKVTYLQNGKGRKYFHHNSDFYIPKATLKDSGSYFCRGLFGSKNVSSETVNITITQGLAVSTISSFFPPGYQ

[9] = target: FcγRIIIa-158F-CHO^WT (soluble FcγRIIIa, allotype 158F, from wild-type CHO) (human) (UniProt P08637)
FcγRIIIa-158F-CHO^WT (soluble FcγRIIIa, allotype 158F, from wild-type CHO) (human), sequence (P08637 17-208): as above

[10] = target: FcγRIIIa-158V-Afucosylated (human)
[11] = target: FcγRIIIa-158F-HEK^WT (human) (UniProt P08637)
FcγRIIIa-158F-HEK^WT (human), sequence (P08637 17-208): as above

[12] = target: FcγRIIIa-158F-Hybrid (human) (UniProt P08637)
FcγRIIIa-158F-Hybrid (human), sequence (P08637 17-208): as above

[13] = target: FcγRIIIa-158F-Monoantennae (human) (UniProt P08637)
FcγRIIIa-158F-Monoantennae (human), sequence (P08637 17-208): as above

[14] = target: FcγRIIIa-158V-G2FS(2-3) (human)
[15] = target: FcγRIIIa-158V-HEK^WT (human)
[16] = target: FcγRIIIa-158V-Monoantennae (human)
[17] = target: biotinylated, recombinant, human FcγRIIIa-158V from SinoBiological (human)
[18] = target: FcγRIIIa-158V, FcγRIIIa-Monoantennae (human)
FcγRIIIa-158V, FcγRIIIa-Monoantennae (human), sequence (P08637 17-208 F176V): as the sequence (P08637 17-208) above, with F160V counted along it

[19] = target: FcγRIIIa-158V, FcγRIIIa-Hybrid (human)
FcγRIIIa-158V, FcγRIIIa-Hybrid (human), sequence (P08637 17-208 F176V): as the sequence (P08637 17-208) above, with F160V counted along it

[20] = target: FcγRIIIa-158V, FcγRIIIa-Oligomannose (human)
FcγRIIIa-158V, FcγRIIIa-Oligomannose (human), sequence (P08637 17-208 F176V): as the sequence (P08637 17-208) above, with F160V counted along it

[21] = target: FcγRIIIa-158V, FcγRIIIa-CHO^WT (human)
FcγRIIIa-158V, FcγRIIIa-CHO^WT (human), sequence (P08637 17-208 F176V): as the sequence (P08637 17-208) above, with F160V counted along it

[22] = target: FcγRIIIa-158V, FcγRIIIa-G2FS(2-3) (human)
FcγRIIIa-158V, FcγRIIIa-G2FS(2-3) (human), sequence (P08637 17-208 F176V): as the sequence (P08637 17-208) above, with F160V counted along it

[23] = target: FcγRIIIa-158V, FcγRIIIa-HEK^WT (human)
FcγRIIIa-158V, FcγRIIIa-HEK^WT (human), sequence (P08637 17-208 F176V): as the sequence (P08637 17-208) above, with F160V counted along it

[24] = target: FcγRIIIa-158V, FcγRIIIa-Afucosylated (human)
FcγRIIIa-158V, FcγRIIIa-Afucosylated (human), sequence (P08637 17-208 F176V): as the sequence (P08637 17-208) above, with F160V counted along it

[25] = target: FcγRIIIa-158V, FcγRIIIa-G2FS(2-6) (human)
FcγRIIIa-158V, FcγRIIIa-G2FS(2-6) (human), sequence (P08637 17-208 F176V): as the sequence (P08637 17-208) above, with F160V counted along it

FcγRIIIa-158F-G2FS(2-6) (human), sequence (P08637 17-208): as the sequence (P08637 17-208) above
biotinylated, recombinant, human FcγRIIIa-158F from SinoBiological (human), sequence (P08637 17-208): as above
FcγRIIIa-158F-Afucosylated (human), sequence (P08637 17-208): as above

Substance	Kd [1] [nM]	Kd [2] [nM]	Kd [3] [nM]	Kd [4] [nM]	Kd [5] [nM]	Kd [7] [nM]	Kd [8] [nM]	Kd [9] [nM]	Kd [10] [nM]	Kd [11] [nM]	Kd [12] [nM]	Kd [13] [nM]	Kd [14] [nM]	Kd [15] [nM]	Kd [16] [nM]	Kd [17] [nM]	Kd [18] [nM]	Kd [19] [nM]	Kd [22] [nM]	Kd [23] [nM]	also measured
IgG1-CHO^WT (anti-rabies human IgG1 mAb SO57 from wild-type CHO) (antibody)	2330	1780	489	456	242	443	2540	3490	464	2160	2220	2350	624	440	489	440	–	–	–	–	Kd [6]: 1680 nM
IgG1-G0 (mAb SO57) (antibody)	164	–	36.9	33	14.2	29.7	184	213	29.6	–	–	170	–	–	37.6	32.9	–	–	–	–	–
IgG1-G0 (mAb SO57, afucosylated, agalactosylated)	–	–	–	–	–	–	–	–	–	–	–	–	–	–	–	–	38	33	38	–	Kd [20]: 14 nM; Kd [21]: 37 nM
IgG1-G2F (mAb SO57) (antibody)	1210	965	278	297	–	262	1370	1860	270	1150	1210	1270	377	263	305	–	–	–	–	–	Kd [6]: 851 nM
IgG1-G2F (mAb SO57, galactosylated)	–	–	–	–	–	–	–	–	–	–	–	–	–	–	–	–	300	300	380	260	Kd [24]: 270 nM; Kd [25]: 260 nM
IgG1-G2FS(2-3) (mAb SO57) (antibody)	1220	953	288	302	143	259	1330	1880	275	1190	1220	1340	385	259	312	275	–	–	–	–	Kd [6]: 832 nM
IgG1-G2FS(2-3) (mAb SO57, α2-3 linked Sia)	–	–	–	–	–	–	–	–	–	–	–	–	–	–	–	–	310	300	–	260	Kd [21]: 290 nM; Kd [25]: 260 nM
IgG1-G2FS(2-6) (mAb SO57) (antibody)	964	–	–	281	145	–	1240	1860	260	1050	1110	1110	398	261	289	275	–	–	–	–	–
IgG1-G2FS(2-6) (mAb SO57, α2-6 linked Sia)	–	–	–	–	–	–	–	–	–	–	–	–	–	–	–	–	290	–	400	260	Kd [24]: 260 nM
IgG1-Hybrid (mAb SO57) (antibody)	2210	2230	869	471	399	573	–	4610	808	2510	2660	2200	1070	693	426	598	–	–	–	–	–
IgG1-Hybrid (mAb SO57, hybrid N-glycan)	–	–	–	–	–	–	–	–	–	–	–	–	–	–	–	–	–	470	1100	690	Kd [20]: 400 nM; Kd [21]: 870 nM; Kd [24]: 810 nM
IgG1-Monoantennae (mAb SO57) (antibody)	–	3260	635	742	375	755	–	–	698	–	–	–	935	643	731	761	–	–	–	–	–
IgG1-Monoantennae (mAb SO57, monoantennary N-glycan)	–	–	–	–	–	–	–	–	–	–	–	–	–	–	–	–	730	740	930	640	Kd [20]: 380 nM; Kd [21]: 640 nM; Kd [24]: 700 nM; Kd [25]: 750 nM
IgG1-Oligomannose (mAb SO57) (antibody)	406	–	–	104	37.6	79.6	480	582	88.3	383	405	428	123	87.2	109	93.2	–	–	–	–	–
IgG1-Oligomannose (mAb SO57, Man5)	–	–	–	–	–	–	–	–	–	–	–	–	–	–	–	–	–	–	–	87	Kd [20]: 38 nM; Kd [24]: 88 nM; Kd [25]: 80 nM
